Assay results: US20030176678A1

Target: intact IFNAR1 from human cells (IFNAR1 chain of the type I interferon receptor) (human) (UniProt P17181)
Assay: cell-based or functional assay

UniProt P17181, sequence (P17181 28-557): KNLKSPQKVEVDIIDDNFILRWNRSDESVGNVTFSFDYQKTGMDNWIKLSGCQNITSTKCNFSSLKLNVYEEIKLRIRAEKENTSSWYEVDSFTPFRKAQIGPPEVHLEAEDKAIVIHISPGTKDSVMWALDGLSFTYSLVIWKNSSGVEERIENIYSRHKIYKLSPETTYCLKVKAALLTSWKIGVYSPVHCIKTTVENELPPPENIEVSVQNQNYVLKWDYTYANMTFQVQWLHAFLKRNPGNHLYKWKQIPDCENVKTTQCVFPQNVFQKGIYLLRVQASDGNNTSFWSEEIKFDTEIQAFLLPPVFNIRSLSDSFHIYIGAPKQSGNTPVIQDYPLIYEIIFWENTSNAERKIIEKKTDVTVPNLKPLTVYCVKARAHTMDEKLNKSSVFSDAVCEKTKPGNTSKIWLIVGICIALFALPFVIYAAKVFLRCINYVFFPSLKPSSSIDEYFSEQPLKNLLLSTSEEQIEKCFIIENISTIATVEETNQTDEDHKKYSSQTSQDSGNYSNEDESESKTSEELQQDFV

reduction in the growth inhibitory effect of IFN-β on myeloma U266S cells by antisense-1 oligonucleotide (Alamar Blue): < 5 fold
Substance: IR1B4/PRMT enzyme (endogenous protein of human myeloma U266S cells) (from UniProt Q99873 11-371)
